Experimental data: the DeepSol protein solubility set

assay: soluble on expression in E. coli; label from the status in PepcDB or PDB records

Which “soluble on expression in E. coli” value does the source give for “MGSDKIHHHHHHMEKLEKTVDMNIQQMINLSVLELVKLGLKYGIFKAVSKKISYIDLLNQVDVPNKPLLKKLIDHLKLLGIIEETPTHLLLNSFSYEIRFPKEEHMYLLPDWIPSFEEIYRMVDFALITPNHPHVLMDFDKDADFWDLRLSSTFHEAYRILIAKLGEIGEGSRVLDIGCGSASPAYFGKLVGEEGEYVGVDYSPALLEIAKNRTEGLPVKLKEMDASLIKPKNKYDVAIMSFVLEYIENRRSALRNALDSLESGGKLIIVDAFKDEFRNVEALEFFEGLNSAFREYPSKKYIKEVILDEGFEVKFGDYGKAILLIEKL” here?
The value was “not soluble”.

Which “soluble on expression in E. coli” value does the source give for “MGSDKIHHHHHHMSNRDKILSYRDLIKKKLIPLINADYVLLDVPNHPNIGDNLIWEGELRFLENIHYKCIYSANVHNWDENKIKDAKIILFHGGGNWGDLYRECQEHRLYIAEKFKDKRIIIFPQTVWYNNKSILPIDCKIFNNHADIHICLRDQMSMDILSNYVDAKKLYLLPDMAFFVDVEAMPMRKVRNDCILFMLRTDSEIDDITFKLESDFDVKDWPTFSNNKYILLLYSYFEYFKVVVSKRLQKCKFLNVFVSPIYGLNRKNNRERYIYKGINFFSNYEIIYTTRLHGLILGILMDKKVIIVDNKYNKCKNYYDTWLREFDNIELMS” here?
The value was “not soluble”.

With “MLFVLILSHRAASYGAIMAALPYMQLYIADYLADTMHLSAEEHGAYLLLMFNYWQTGKPIPKNRLAKIARLTNERWADVEPSLQEFFCDNGEEWVHLRIEEDLASVREKLTKKSAAGKASVQARRSRKEADVQTKQERNLTGVQTDVEVVFEHDVNTKATNKDTDKDLKTDPPLNPPRGNRGVKKFDPLDITLPNWISVSLWREWVEFRQALRKPIRTEQGANGAIRELEKFRQQGFSPEQVIRHSIANEYQGLFAPKGVRPETLLRQVNTVSLPDSAIPPGFRG” as the sequence, how does the “soluble on expression in E. coli” value read?
The value was “not soluble”.

Which “soluble on expression in E. coli” value does the source give for “AAASFGQTKIPRGNGPYSVGCTDLMFDHTNKGTFLRLYYPSQDNDRLDTLWIPNKEYFWGLSKFLGTHWLMGNILRLLFGSMTTPANWNSPLRPGEKYPLVVFSHGLGAFRTLYSAIGIDLASHGFIVAAVEHRDRSASATYYFKDQSAAEIGDKSWLYLRTLKQEEETHIRNEQVRQRAKECSQALSLILDIDHGKPVKNALDLKFDMEQLKDSIDREKIAVIGHSFGGATVIQTLSEDQRFRCGIALDAWMFPLGDEVYSRIPQPLFFINSEYFQYPANIIKMKKCYSPDKERKMITIRGSVHQNFADFTFATGKIIGHMLKLKGDIDSNVAIDLSNKASLAFLQKHLGLHKDFDQWDCLIEGDDENLIPGTNINTTNQHI” here?
Its value is “soluble”.

For “SPGNRENKEKKVFISLVGSRGLGCSISSGPIQKPGIFISHVKPGSLSAEVGLEIGDQIVEVNGVDFSNLDHKEAVNVLKSSRSLTISIVAAAGRELFMTDR”, which “soluble on expression in E. coli” value is on record?
Its value is “soluble”.

With “MTERSPLRVGIGGPVGSGKTALTLNLCRALRNKYNMAVVTNDIYTKEDSNFLTRNEAMTPDRIVGVETGGCPHTAIREDASINLAAIDDLCEKFDGLELIIIESGGDNLAATFSPELSDLTLYVIDVAGGEKIPRKGGPGITKSDLLIINKTDLAPMVGANLDVMEQDAKRMRGEKPFLFSNMKTEDGLTQIIEFIEKQGLFKALEHHHHHH” as the sequence, how does the “soluble on expression in E. coli” value read?
The value was “soluble”.

With “MGSDKIHHHHHHMRVNMYLSRQIQPLVSRLLKQFPAVLVTGARQVGKSTLLKHIAKDYAYLTFDDPLLLEQAKQEPRLFFLNHAGNVILDEVQYAQELFSLLKLEIDKQQKNGMFLLSGSQAFELMQNVSETLAGRIAILKLQGLSLREILNVEFYLPFIPSRDYLASREKMLKSPENIWQIIHKGDMPRLYQQETDWEIYYSSYVSTYIERDVRQLTNITNTTDFTRFMVALASRSGELLNYSNVAQEVGVSNETIKRWTAILQTSGIIYLLQPYSNNHLKRTIKTPKIYFLNTGLMAYLTKWLTPETISKGAKSGQFFESFVVSEIIKSFTNNGIEPPLYFYRNTNQKEIDLIIEYDRTIYPIEIKTTANPNKKMAKSFALLNSLGKESTIGLGVIINQYPNKHYLAENLVALPVRYL” as the sequence, how does the “soluble on expression in E. coli” value read?
The value was “not soluble”.

With “MGSSHHHHHHSSGLVPRGSHMDTKIGLEVHFQLNTGKLFCRCPVEQSSGELMRFSRKLHISASELGNIDAAASYESMRSRSFQYVVTDNSCLVEMDEEPPKTPDERAIATAISVSKALNCDIVDHITYMRKIVIDGSNTTGFQRTAIVGINGHIETSKGPVRISTVCLEEDAARKIEEIGNTVVYSLDRLGIPLIEISTEPDIVDEDHAVEVARSIGYIVISTGNARHAVDAVRQDVNFSMGYGRVEIKGVSKLTQIRDVIRYEKERQENLRAAVDLIKSRGGLDRVSFNLKDVSDLFAGTKSKIIRSGIESGGVYAGILKNMAGTLKNGKLRMGKEIADLVRSYGIKGVMHSDELPGYGLTQDEVEALYRYLGKGDNDAVLLIAINQSRVKMIENSIFDRIQKIISMDLSETRGPAGEETVFLRPMPGKDRMYPETDIPVIKVDSKLMEMSSSIKPRTYAEVVQDLVDRYGISKQNAEYIASEMVVDAFRNIAEFVEAREAARILTQIVPDLERRTKKIIDHDRIIELCRRSKDLHFDRYQLEMALEILYERDDVASVLGDSRLKELSREEIKSIIREILSSGRNATQNSIIALIKEKTERVFDPRVAMECFNEVKNKNNVF” as the sequence, how does the “soluble on expression in E. coli” value read?
Its value is “soluble”.

With “MNILLCCSAGMSTSLLVTKMEAAAKARGLEGKIWAVSGDAVKTNIDQADVLLLGPQVRYMLSSMKTLADERNVGIDVINPMHYGMMNGEAVLDHALTLKK” as the sequence, how does the “soluble on expression in E. coli” value read?
The value was “not soluble”.

For “MISNKRRPKIKIWNKEQMALYLKAIKKDRLYAAFVTDSKSGLRKSELLALRWSDIDFSTGLTKIERGWVRSPKGTLYLSDLKSENSERTLVFSTDLLKVLLEHKSRQDEEKKTAGKNYIDNGLVFCREDGSYINPSTFTRRHYDLTAKAKLPRISVHALRHSISTALLESGKVDLKQIQEMLGHKDISTTGNYYTDVLERMKQKTSELIDNLIQTELEHHHHHH”, which “soluble on expression in E. coli” value is on record?
The value was “not soluble”.

Which “soluble on expression in E. coli” value does the source give for “MGSDKIHHHHHHMVKLYKEIINLIDNHQATMVEQLHQFCEINSGTTNLTGLAIMAETLCSAFKPIADTTELITLPPLSVIDMTGNTVMQSCGDVLFISKRPHLKRRILLSGHMDTVYSASNPFQKLSYLDANQINGPGVADMKGGLIVILHALAAFENTRFAEDMGWDVLINSDEEIGSPTSGSLFNKLAHRYQAALVYEPAMTPNGTLAKNRKGSGKLTLVATGRAAHAGRAFDEGRNAICYLAEAITAVHALNGQKNGVTINVGKIAGGEALNVVPDKAVAQLDIRISLPEDEIWVRNELNKIIKQLERPDYSLNVHGTFGRPVKRICAGTERLFHRIQKIGEALGLTIDWKDSGGCCDGNNLAHYGLPVLDTLGVRGGNIHSSDEYILLDSLSERAALSALLLIDLAQGGLEDLIK” here?
Its value is “not soluble”.

For “MGSDKIHHHHHHMNSKLSLSTKLSSSGKTQLAEYFATPPFKVITLPSYDDAWANGLNAMQMSSSPGVLAGDLLEIDISLAKLTALSLNTQAFTRVQAMNEGDSAMQTTHILLAENSRLFYLPHPLVLHRDSVFKQQTQIEMGEQSELIYGEIVAIGRVLNDERFAFRQFSSHLKIYALQNDGKKRPLVSDCIQWLPSKMNLTALSQMENYSHQGSLTYLNLAKNNAEIKQQVQALQQQSTEEKDLLIGISQLNEYGLMVRVLGCRAEANSEII”, which “soluble on expression in E. coli” value is on record?
Its value is “not soluble”.

For “MGSDKIHHHHHHMKNLIFKDSQFEFQTLRVLGSSASGAADIGEVVETAQRIKEGDFKSWCDEWSKTAKSLEESAEESYSKGHFISAKKAYLRAANYYRTAEFYLHENPNNPIIGELYEKSLRCFSYVMKLNKPAIEAVKIPYENTFLPAHYYKLQNSNGKAPVLIAMTGYDGTKEEFYGLAMTALEHGMNFLTFEGPGQGEAVRKQKLFFRYDYEKVVTPVIDYVISRKEVDQAKIILWGESLGGYLAPRAAAFEHRLAACVANSGVYDFFGGILRELGNNSREEFFSAARINPEEFDKNIYSIAKLNSKVRWGIYHGMYVFGVNSPHEYILKAEDFYLKDIAEKIKCPTLVIDSDNDGILGGQSKPLYDVLRCKKEYMFFTSENGAGYHCQVGAKLIGWERILSWIEDIIK”, which “soluble on expression in E. coli” value is on record?
The value was “not soluble”.

With “MSKPEFIARQGRKPTGWLGHIVARVMARETRPENDRALSFLDLADGDSLIDIGCGHGETLFQADRIVRLSGSVGVDFSEVMLKRARARNRDAVWDTRMAFHCADTAALPFPDKRFGKALSVHTIYFWPNPAAHLAEAFRVLRRGGRFLFCYRSTADRRAVEEFPDTVYRFPSVQEVEEKLKLVGFLGPETTTEDIKGRLTHWSIAEKPLEHHHHHH” as the sequence, how does the “soluble on expression in E. coli” value read?
Its value is “soluble”.

Which “soluble on expression in E. coli” value does the source give for “MSLAANPWNWFGSSTKVSEQGVGELTASTPLQEQAIADALDGDYRLRSGMKTANGNVVRFFEVMKGDNVAMVINGDQGTISRIDVLDSDIPADTGVKIGTPFSDLYSKAFGNCQKADGDDNRAVECKAEGSQHISYQFSGEWRGPEGLMPSDDTLKNWKVSKIIWRREGHHHHHH” here?
Its value is “soluble”.

For “GDTSWIKTGKVAWDWWNDWNLKGVPFKAGINMDTYKYYIDFASRNGLEFIVLDEGWYDPKSGDMLTVIPELDLPELIAYGKSKGVEIVLWTVFNVLDSQLEAACKKYADMGIKGFKVDFLDRDDQTAVEMVYRIAEMTARYKLTLDLHGIYKPTGINRTYPHII”, which “soluble on expression in E. coli” value is on record?
Its value is “not soluble”.

With “KPKFFYIKSELNGKVLDIEGQNPAPGSKIITWDQKKGPTAVNQLWYTDQQGVIRSKLNDFAIDASHEQIETQPFDPNNPKRAWIVSGNTIAQLSDRDIVLDIIKSDKEAGAHICAWKQHGGPNQKFIIESE” as the sequence, how does the “soluble on expression in E. coli” value read?
The value was “soluble”.

With “MTEFSASLAPQVEAFLRYLSIERQLSPLTVTSYRRQLSALMEIGEQMGLAHWQTLDAAQVRSLVSRSKRAGLHASSLALRLSALRSFLNWLVSQGVLPANPAKGVSTPRSGRHLPKNIDVDEVNKLLSIDLNDPLAVRDRAMLEVMYGAGLRLSELVGMNCKHVDLASGDVWVMGKGSKERKVPLGKTAVTWLQHWLALRELFEPQDDAIFLANTGKRISARNVQKRFAEWGVKQGVSSHIHPHKLRHSFATHMLESSGDLRAVQELLGHANLTTTQIYTHLDFQHLATVYDAAHPRAKRGKS” as the sequence, how does the “soluble on expression in E. coli” value read?
Its value is “not soluble”.

Which “soluble on expression in E. coli” value does the source give for “MSLYVKMMEMGRMIDNCLYCGSATLLSIIHLANGKNAVTCGKCGLTRTIPVPSAEYSEVAEYFENYLLKEKLFRAFSRKLLDFVLSVVQNGRLLEVGCSVGFFLEEAKRAGFSVNGVELNEKAATLSKGKDFDVRNCMLREAGFPSHEFDVVVMSHVLEHIQDLREFLADIKVLLRPGGKVIVSQPTPDGIVPKMQKKKWYGWVPNEHVWHFTPKTLSLVFAENGFDVVKVERNSMYYSLWPSSLRGILVALVARTAAVLGLGDQFYLAATVSEKDSEGHHHHHH” here?
Its value is “not soluble”.

For “MKERIVGQSGELFCFGQMPVWKVENLPEVLLSGYSSEEGEWVCLNVLQGDVEVRAPDGSAEVWSADGGDCVFAPQQVFSVKPKTDDAEIRLSLYCAAADYFHKKYGMSATHSAVAAARDTVPAGRALDMGCGQGRNALFLGLKGFEVTAVDHNPAALANVAELAEAEGLNVRTLEYDLNAAALQGEFDYIVATVVLMFLMPQRVPDVIADMQAHTAAGGYNLIVSAMDTADFPCPMPFPFKFKEGELKDYYRDWELVEYKEELGSMHAKDENGNPIRFKFVTMLAKKPELEHHHHHH”, which “soluble on expression in E. coli” value is on record?
The value was “not soluble”.

With “MGSDKIHHHHHHRPYTPDYEIVPEYTNADTWKAYEAFNEHLLDQNKFIYKSSTADKAAVDRWNGAAAIWCQPTYWDMAMNAYKRAKAEGDTQKEQKFKQLCDDLFAGNKAHYANFDFDDNNENTGWFIYDDIMWWTVTLARAYELFGVEEYLSLSEESFGRVWYGSEKVGDTGSYADPEKGLGGGMFWQWQPIKNPNPNEADHGKMACINFPTVVAALTLYNNVPTGRTESTDSHPSYQTKEQYLAKGKEIYAWAVENLVDVTTGQVADSRHGNGNPAWKDHVYNQASYIGASVLLYKATGEKQYLDNAVMAADYTMNTISGTFDLLPFETGAEQGIYTAVFAQYIAMLVYDCDQTQYIPFVKRNINYGWANRDKTRDICGGDYTKLQVEGDAVESYSASGIPALMLLFPTDK” as the sequence, how does the “soluble on expression in E. coli” value read?
The value was “not soluble”.
